Experimental findings from US20240228572A1 (I2O THERAPEUTICS, published 2024) are described below.

*1 amine or outer side, *2 acyl side, *3 side chain or, on linkers, in order; H or OH if unused. Bridges are numbered along the chain shown (N, C = ends). Primed or numbered codes have the meaning given here. Where no end group is shown, it is not given here. Side-chain parts run from the residue outwards. [ ]: non-standard residue; d: D form. The star is where a group is joined. dpeg″ = spacer —[CO(CH2)O(CH2)2O(CH2)NH]—, O=C(COCCOCN[*:1])[*:2]; dpeg = —[CO(CH2)O(CH2)2O(CH2)NH]— spacer, O=C(COCCOCN[*:1])[*:2]; C20 diacid = O=C(O)CCCCCCCCCCCCCCCCCCC(=O)*; γGlu = O=C(O)[C@H](CCC(=O)[*:2])N[*:1]; Aib = CC(C)(N)C(=O)O Bounds are passed on as bounds.

Assay [1] concerns the target human Glucagon receptor (GCGR) (human, UniProt P47871 26-477). Kind of assay: cell-based or functional assay.
The target in assay [2] is human GLP-1 receptor (GLP-1R) (human, UniProt P43220 24-463). Kind of assay: cell-based or functional assay.
Chain of human GLP-1 receptor (GLP-1R) (P43220 24-463): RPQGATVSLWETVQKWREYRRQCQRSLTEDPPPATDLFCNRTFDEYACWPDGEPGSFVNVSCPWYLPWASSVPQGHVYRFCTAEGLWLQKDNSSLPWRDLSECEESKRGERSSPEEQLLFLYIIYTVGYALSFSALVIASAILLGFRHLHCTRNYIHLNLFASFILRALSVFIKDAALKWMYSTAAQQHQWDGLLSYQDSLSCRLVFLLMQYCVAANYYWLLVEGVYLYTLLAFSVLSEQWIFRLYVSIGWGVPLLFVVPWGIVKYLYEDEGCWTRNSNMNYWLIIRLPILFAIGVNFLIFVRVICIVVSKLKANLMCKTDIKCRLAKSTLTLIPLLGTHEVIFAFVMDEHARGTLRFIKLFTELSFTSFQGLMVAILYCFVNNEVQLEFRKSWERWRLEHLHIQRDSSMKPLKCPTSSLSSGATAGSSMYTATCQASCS

B1: Compound A1 (peptide)
peptide: YSHGTFTSDYSKYLK([γGlu-γGlu-dpeg-C20 diacid])[Aib]KYAQEFV[Aib]WLEDEPSSGAPPPS-OH
Consider B1, for which, in assay [1], the “pEC50, cAMP accumulation” value is 11.5 pEC50 (-log M).

B2: Compound A9 (peptide)
peptide: YSHGTFTSDYSKYLDK([γGlu-γGlu-dpeg-C20 diacid])KYAQEF[Aib]KWLEDEPSSGAPPPS-OH
Regarding B2, the “pEC50, cAMP accumulation” value in assay [1] was 10.6 pEC50 (-log M); in assay [2], < 9 pEC50 (-log M).

B3: Compound A13 (peptide)
peptide: YSHGTFTSDYSKYLDK([γGlu-γGlu-C20 diacid])KYAQEFV[Aib]WLEDEPSSGAPPPS-OH
modifications: N-terminus assumed
SMILES: CC(C)C[C@H](NC(=O)[C@H](Cc1ccc(O)cc1)NC(=O)[C@H](CCCCN)NC(=O)[C@H](CO)NC(=O)[C@H](Cc1ccc(O)cc1)NC(=O)[C@H](CC(=O)O)NC(=O)[C@H](CO)NC(=O)[C@@H](NC(=O)[C@H](Cc1ccccc1)NC(=O)[C@@H](NC(=O)CNC(=O)[C@H](Cc1c[nH]cn1)NC(=O)[C@H](CO)NC(=O)[C@@H](N)Cc1ccc(O)cc1)[C@@H](C)O)[C@@H](C)O)C(=O)N[C@@H](CC(=O)O)C(=O)N[C@@H](CCCCNC(=O)CC[C@H](NC(=O)CC[C@H](NC(=O)CCCCCCCCCCCCCCCCCCC(=O)O)C(=O)O)C(=O)O)C(=O)N[C@@H](CCCCN)C(=O)N[C@@H](Cc1ccc(O)cc1)C(=O)N[C@@H](C)C(=O)N[C@@H](CCC(N)=O)C(=O)N[C@@H](CCC(=O)O)C(=O)N[C@@H](Cc1ccccc1)C(=O)N[C@H](C(=O)NC(C)(C)C(=O)N[C@@H](Cc1c[nH]c2ccccc12)C(=O)N[C@@H](CC(C)C)C(=O)N[C@@H](CCC(=O)O)C(=O)N[C@@H](CC(=O)O)C(=O)N[C@@H](CCC(=O)O)C(=O)N1CCC[C@H]1C(=O)N[C@@H](CO)C(=O)N[C@@H](CO)C(=O)NCC(=O)N[C@@H](C)C(=O)N1CCC[C@H]1C(=O)N1CCC[C@H]1C(=O)N1CCC[C@H]1C(=O)N[C@@H](CO)C(=O)O)C(C)C
Regarding B3, the “pEC50, cAMP accumulation” value in assay [1] is 12 pEC50 (-log M); in assay [2], < 9 pEC50 (-log M).

B4: Compound A5 (peptide)
peptide: YSHGTFTSDYSKYLD[Aib]KYAK([γGlu-γGlu-dpeg-C20 diacid])EFV[Aib]WLEDEPSSGAPPPS-OH
For B4, in assay [1], the “pEC50, cAMP accumulation” value is 11.6 pEC50 (-log M).

B5: Compound A12 (peptide)
peptide: YSHGTFTSDYSKYLDK([γGlu-γGlu-dpeg″-C20 diacid])KYAEEFVKWLEDEPSSGAPPPS-OH
modifications: lactam 20-24
Turning to B5, the figures for the “pEC50, cAMP accumulation” value in assay [1] and in assay [2] were 11.8 pEC50 (-log M) and < 9 pEC50 (-log M), respectively.

B6: Compound A14 (peptide)
peptide: YSHGTFTSDYSKYLD[Aib]KYAQK([γGlu-γGlu-C20 diacid])FV[Aib]WLEDEPSSGAPPPS-OH
modifications: N-terminus assumed
SMILES: CC(C)C[C@H](NC(=O)[C@H](Cc1ccc(O)cc1)NC(=O)[C@H](CCCCN)NC(=O)[C@H](CO)NC(=O)[C@H](Cc1ccc(O)cc1)NC(=O)[C@H](CC(=O)O)NC(=O)[C@H](CO)NC(=O)[C@@H](NC(=O)[C@H](Cc1ccccc1)NC(=O)[C@@H](NC(=O)CNC(=O)[C@H](Cc1c[nH]cn1)NC(=O)[C@H](CO)NC(=O)[C@@H](N)Cc1ccc(O)cc1)[C@@H](C)O)[C@@H](C)O)C(=O)N[C@@H](CC(=O)O)C(=O)NC(C)(C)C(=O)N[C@@H](CCCCN)C(=O)N[C@@H](Cc1ccc(O)cc1)C(=O)N[C@@H](C)C(=O)N[C@@H](CCC(N)=O)C(=O)N[C@@H](CCCCNC(=O)CC[C@H](NC(=O)CC[C@H](NC(=O)CCCCCCCCCCCCCCCCCCC(=O)O)C(=O)O)C(=O)O)C(=O)N[C@@H](Cc1ccccc1)C(=O)N[C@H](C(=O)NC(C)(C)C(=O)N[C@@H](Cc1c[nH]c2ccccc12)C(=O)N[C@@H](CC(C)C)C(=O)N[C@@H](CCC(=O)O)C(=O)N[C@@H](CC(=O)O)C(=O)N[C@@H](CCC(=O)O)C(=O)N1CCC[C@H]1C(=O)N[C@@H](CO)C(=O)N[C@@H](CO)C(=O)NCC(=O)N[C@@H](C)C(=O)N1CCC[C@H]1C(=O)N1CCC[C@H]1C(=O)N1CCC[C@H]1C(=O)N[C@@H](CO)C(=O)O)C(C)C
As for B6, the figures for the “pEC50, cAMP accumulation” value in assay [1] and in assay [2] were 11.2 pEC50 (-log M) and < 9 pEC50 (-log M), respectively.

B7: Compound A2 (peptide)
peptide: YSHGTFTSDYSKYLDK([γGlu-γGlu-dpeg-C20 diacid])KYAQEFV[Aib]WLEDEPSSGAPPPS-OH
In the case of B7, in assay [1], the “pEC50, cAMP accumulation” value is 12.5 pEC50 (-log M).

B8: Compound A4 (peptide)
peptide: YSHGTFTSDYSKYLD[Aib]KK([γGlu-γGlu-dpeg-C20 diacid])AQEFV[Aib]WLEDEPSSGAPPPS-OH
Turning to B8, the “pEC50, cAMP accumulation” value in assay [1] was 11.7 pEC50 (-log M).

B9: Compound A10 (peptide)
peptide: YSHGTFTSDYSKYLDK([γGlu-γGlu-dpeg-C20 diacid])KYAQEF[Aib]SWLEDEPSSGAPPPS-OH
In the case of B9, the “pEC50, cAMP accumulation” value in assay [1] was 10.4 pEC50 (-log M); in assay [2], < 9 pEC50 (-log M).

B10: Compound A3 (peptide)
peptide: YSHGTFTSDYSKYLD[Aib]K([γGlu-γGlu-dpeg-C20 diacid])YAQEFV[Aib]WLEDEPSSGAPPPS-OH
On to B10, for which, in assay [1], the “pEC50, cAMP accumulation” value was 12.5 pEC50 (-log M).

B11: Compound A8 (peptide)
peptide: YSHGTFTSDYSKYLDK([γGlu-γGlu-dpeg-C20 diacid])KYAQEF[Aib]EWLEDEPSSGAPPPS-OH
On to B11, for which the figures for the “pEC50, cAMP accumulation” value in assay [1] and in assay [2] were 9.9 pEC50 (-log M) and < 9 pEC50 (-log M), respectively.

B12: Compound A11 (peptide)
peptide: YSHGTFTSDYSKYLDK([γGlu-γGlu-dpeg″-C20 diacid])KYAKEFVEWLEDEPSSGAPPPS-OH
modifications: lactam 20-24
Regarding B12, the “pEC50, cAMP accumulation” value is 11.7 pEC50 (-log M) in assay [1] and < 9 pEC50 (-log M) in assay [2].

B13: Compound A29 (peptide)
peptide: YSHGTFTSDYSKYLD[Aib]KYAQK([γGlu-γGlu-dpeg″-C20 diacid])FVKWLEEEPSSGAPPPS-OH
modifications: lactam 24-28; N-terminus assumed
SMILES: CC(C)C[C@@H]1NC(=O)[C@H](Cc2c[nH]c3ccccc23)NC(=O)[C@@H](NC(=O)[C@@H](NC(=O)[C@H](Cc2ccccc2)NC(=O)[C@H](CCCCNC(=O)CC[C@H](NC(=O)CC[C@H](NC(=O)COCCOCNC(=O)CCCCCCCCCCCCCCCCCCC(=O)O)C(=O)O)C(=O)O)NC(=O)[C@H](CCC(N)=O)NC(=O)[C@H](C)NC(=O)[C@H](Cc2ccc(O)cc2)NC(=O)[C@H](CCCCN)NC(=O)C(C)(C)NC(=O)[C@H](CC(=O)O)NC(=O)[C@H](CC(C)C)NC(=O)[C@H](Cc2ccc(O)cc2)NC(=O)[C@H](CCCCN)NC(=O)[C@H](CO)NC(=O)[C@H](Cc2ccc(O)cc2)NC(=O)[C@H](CC(=O)O)NC(=O)[C@H](CO)NC(=O)[C@@H](NC(=O)[C@H](Cc2ccccc2)NC(=O)[C@@H](NC(=O)CNC(=O)[C@H](Cc2c[nH]cn2)NC(=O)[C@H](CO)NC(=O)[C@@H](N)Cc2ccc(O)cc2)[C@@H](C)O)[C@@H](C)O)C(C)C)CCCCNC(=O)CC[C@@H](C(=O)N[C@@H](CCC(=O)O)C(=O)N2CCC[C@H]2C(=O)N[C@@H](CO)C(=O)N[C@@H](CO)C(=O)NCC(=O)N[C@@H](C)C(=O)N2CCC[C@H]2C(=O)N2CCC[C@H]2C(=O)N2CCC[C@H]2C(=O)N[C@@H](CO)C(=O)O)NC(=O)[C@H](CCC(=O)O)NC1=O
For B13, the “pEC50, cAMP accumulation” value in assay [2] is < 9 pEC50 (-log M).
